For the test, the target named is soluble HLA-A*02:01 molecules (purified MHC with human β2-microglobulin) (human). As to the kind of experiment: competition with radiolabeled standard peptide for soluble HLA-A*02:01.

The text below walks through data of patent US20170065713A1.

Consider NLLTTPKFT (modifications not checked) [gB342-350 peptide (HSV-1 glycoprotein B residues 342-350, …)], for which the Kd was more than 500 nM.
GIFEDRAPV (modifications not checked) [gB183-191 peptide (HSV-1 glycoprotein B residues 183-191, …)]: the Kd is more than 500 nM.
